Measurements reported in patent US20250027068.

Molecular target: pooled human IgG

B1: PRT-71 (protein)
chain: MANQEIRYSEVTPYHVTSVWTKGVTPPANFTQGEDVFHAPYVANQGWYDITKTFNGKDDLLCGAATAGNMLHWWFDQNKEEIEAYLKKHPEKQKIMFGDQELLDVRKVINTKGSQTNSELFNYFRDKAFPGLSARRLGVMPDLVLDMFINGYYLNVYKTQTTDVNRTYQEKDKRGGIFDAVFTRGDQSKLLTSRHDFKEKNLKEISDLIKKELTEGKALGLSHTYANVRINHVINLWGADFDSNGNLKAIYVTDSDSNASIGMKKYFVGVNSAGKVAISAKEIKEDNIGAQVLGLFTLSTGQDIWNQTN
Enzyme Activity Endpoint Assay (purified): Fab′2: 53 ng/µL
Enzyme Activity Endpoint Assay (purified): Fc: 126 ng/µL
Enzyme Activity Endpoint Assay (purified): IgG: 25 ng/µL
Enzyme Activity Endpoint Assay (purified): scIgG: 0 ng/µL

B2: PRT-75 (protein)
chain: MANQEIRYSEVTPYHVTSVWTKGVTPPAKFTQGEDVFHAPYVANQGWYDITKTFNGKDDLLCGAATAGNMLHWWFDQNKEKIEAYLKKHPEKQKIMFGDQELLDVRKVINTKDDQTNSELFNYFRDKAFPGLSARRLGVMPDLVLDMFINGYRLNVTKTQTTDVNETYQTKDKRGGIFDAVFTRGDQSKLLTSRHDFKEKNLKEISDLIKKELTEGKALGLSHTYANVRINHVINLWGADFDSNGNLKAIYVTDSDSNASIGMKKYFVGVNSAGKVAISAKEIKDDNIGAQVLGLFTLSTGQDIWNQTN
Enzyme Activity Endpoint Assay (purified): Fab′2: 12 ng/µL
Enzyme Activity Endpoint Assay (purified): Fc: 76 ng/µL
Enzyme Activity Endpoint Assay (purified): IgG: 8 ng/µL
Enzyme Activity Endpoint Assay (purified): scIgG: 54 ng/µL

B3: PRT-73 (protein)
chain: MANQEIRYSEVTPYHVTSVWTKGVTPPANFTQGEDVFHAPYVANQGWYDITKTFNGKDDLLCGAATAGNMLHWWFDQNKEKIEAYLKKHPEKQKIMFGDQELLDVRKVINTKDDQTNSELFNYFRDKAFPGLSARRLGVMPDLVLDMFINGYYLNVTKTQTTDVNRTYQEKDRRGGIFDAVFTRGDQSKLLTSRHDFKEKNLKEISDLIKKELTEGKALGLSHTYANVRINHVINLWGADFDSNGNLKAIYVTDSDSNASIGMKKYFVGVNSAGKVAISAKEIKEDNIGAQVLGLFTLSTGQDSWNQTN
Enzyme Activity Endpoint Assay (purified): Fab′2: 52 ng/µL
Enzyme Activity Endpoint Assay (purified): Fc: 105 ng/µL
Enzyme Activity Endpoint Assay (purified): IgG: 28 ng/µL
Enzyme Activity Endpoint Assay (purified): scIgG: 5 ng/µL

B4: PRT-72 (protein)
chain: MANQEIRYSEVTPYHVTSVWTKGVTPPAKFTQGEDVFHAPYVANQGWYDITKTFNGKDDLLCGAATAGNMLHWWFDQNKEYIEAYLKKHPEKQKIMFGDQELLDVRKVINTKGDQTNSELFNYFRDKAFPYLSARRLGVMPDLVLDMFINGYYLNVTKTQTTDVNRTYQEKDRRGGIFDAVFTRGDQSKLLTSRHDFKEKNLKEISDLIKKELTEGKALGLSHTYANVRINHVINLWGADFDSNGNLKAIYVTDSDSNASIGMKKYFVGVNSAGKVAISAKEIKEDNIGAQVLGLFTLSTGQDIWNQTN
Enzyme Activity Endpoint Assay (purified): Fab′2: 41 ng/µL
Enzyme Activity Endpoint Assay (purified): Fc: 100 ng/µL
Enzyme Activity Endpoint Assay (purified): IgG: 14 ng/µL
Enzyme Activity Endpoint Assay (purified): scIgG: 8 ng/µL

B5: PRT-78 (protein)
chain: MANQEIRYSEETPYHVTSVWTKGVTPPADFTQGEDVFHAPYVANQGWYDITKTFNGKDDLLCGAATAGNMLHWWFDQNKEYIEAYLKKHPEKQKIMFGDQELLDVRKAINTKGSQKNSELFNYFRDKAFPNLSARRLGVMPDLVLDMFINGYYLNVTKTQTTDVNRTYQEKDKRGGIFDAVFTRGDQSKLLTSRHDFKEKGLKEISDLIKQELTEGKALGLSHTYANVRINHVINLWGADFDSDGNLKAIYVTDSDSNASIGMKKYFVGVNSAGKVAISAKEIKEDNIGAQVLGLFTLSTGQDIWNQTN
Enzyme Activity Endpoint Assay (purified): Fab′2: 34 ng/µL
Enzyme Activity Endpoint Assay (purified): Fc: 94 ng/µL
Enzyme Activity Endpoint Assay (purified): IgG: 21 ng/µL
Enzyme Activity Endpoint Assay (purified): scIgG: 11 ng/µL

B6: PRT-74 (protein)
chain: MANQEIRYSEVTPSHVTSVWTKGVTPPANFTQGEDVFHAPYVANQGWYDITKTFNGKDNLLCGAATAGNMLHWWFDQNKEEIEAYLKKHPEKQKIMFGDQELLDVRKVINTKDSQTNSELFNYFRDKAFPGLSARRLGVMPDLVLDMFINGYYLNVYKTQTTDVNRTYQEKDRRGGIFDAVFTRGDQSKLLTSRHDFKEKTLKEISDLIKKELTEGKALGLSHTYANVRINHVINLWGADFDSNGNLKAIYVTDSDSNASIGMKKYFVGVNSAGKVAISAKEIKEDNIGAQVLGLFTLSTGQDIWNQTN
Enzyme Activity Endpoint Assay (purified): Fab′2: 26 ng/µL
Enzyme Activity Endpoint Assay (purified): Fc: 73 ng/µL
Enzyme Activity Endpoint Assay (purified): IgG: 23 ng/µL
Enzyme Activity Endpoint Assay (purified): scIgG: 27 ng/µL

B7: PRT-77 (protein)
chain: MANQEIRYSEVTPYHVTSVWTKGVTPPTNFTQGEDVFHAPYVANQGWYDITKTFNGKDNLLCGAATAGNMLHWWFDQNKEEIERYLKKHPEKQKIMFGDQELLDVRKVINTKDDQKNSELFNYFRDKAFPGLSARRLGVMPDLVLDMFINGYYLNVGKTQTTDVNRTYQEKDKRGGIFDAVFTRGDQSKLLTSRHDFKEKNLKEISDLIKQELTEGKALGLSHTYANVRINHVINLWGADFDSNGNLEAIYVTDSDSNASIGMKKYFVGVNSAGKVAISAKEIEEDNIGAQVLGLFTLSTGQDIWNQTN
Enzyme Activity Endpoint Assay (purified): Fab′2: 33 ng/µL
Enzyme Activity Endpoint Assay (purified): Fc: 104 ng/µL
Enzyme Activity Endpoint Assay (purified): IgG: 14 ng/µL
Enzyme Activity Endpoint Assay (purified): scIgG: 17 ng/µL

B8: PRT-79 (protein)
chain: MANQEIRYSEVTPKTITSVWTKGVTPPAKFTQNEDVFHAPYVANQGWYDITKTFNGKDDLLCGAATAGNMLHWWFDQNKEQIEAYLKKHPEKQKIMFGDQELLDVRKVINTKDDQTNSELFNYFKDKAFPNLSARRLGVMPDLVLDMFINGYRLNVGKTQTTDVNRTYQDKDPRGGIFDAVFTRGDQSKLLTSRHDFKEKNLKEISDLIKQELTEGKALGLSHTYANVRINHVINLWGADFDSEGNLEAIYVTDSDSNASIGMKKYFVGVNSAGKVAISAKEIEEDNIGAQVLGLFTLSTGQDIWEQTN
Enzyme Activity Endpoint Assay (purified): Fab′2: 0 ng/µL
Enzyme Activity Endpoint Assay (purified): Fc: 44 ng/µL
Enzyme Activity Endpoint Assay (purified): IgG: 72 ng/µL
Enzyme Activity Endpoint Assay (purified): scIgG: 38 ng/µL

B9: PRT-76 (protein)
chain: MANQEIRYSEVTPYHITSVWTKGVTPPAKFTQGEDVFHAPYVANQGWYDITKTFNGKDDLLCGAATAGNMLHWWFDQNKEEIEAYLKKHPEKQKIMFGDQELLDVRKVINTKDSQTNSALFNYFKDKAFPNLSARRLGVMPDLVLDMFINGYYLNVYKTQTTDVNRTYQTKDRRGGIFDAVFTRGDQSKLLTERHDFKEKTLKEISDLIKQELTEGKALGLSHTYANVRINHVINLWGADFDSNGNLEAIYVTDSDSNASIGMKKYFVGVNSAGKVAISAKEIKEDNIGAQVLGLFTLSTGQDIWNQTN
Enzyme Activity Endpoint Assay (purified): Fab′2: 20 ng/µL
Enzyme Activity Endpoint Assay (purified): Fc: 78 ng/µL
Enzyme Activity Endpoint Assay (purified): IgG: 37 ng/µL
Enzyme Activity Endpoint Assay (purified): scIgG: 38 ng/µL

B10: PRT-67 (protein)
chain: MANQEIRYSEVTPYHVTSVWTKGVTPPANFTQGEDVFHAPYVANQGWYDINKTFNGKDDLLCGAATAGNMLHWWFDQNKDQIKRYLEEHPEKQKINFNGEQMFDVKEAIDTKNHQLDSKLFEYFKEKAFPYLSTKHLGVFPDHVIDMFINGYRLSLTNHGPTPVKEGSKDPRGGIFDAVFTRGDQSKLLTSRHDFKEKNLKEISDLIKKELTEGKALGLSHTYANVRINHVINLWGADFDSNGNLKAIYVTDSDSNASIGMKKYFVGVNSAGKVAISAKEIKEDNIGAQVLGLFTLSTGQDSWNQTN
Enzyme Activity Endpoint Assay (purified): Fab′2: 10 ng/µL
Enzyme Activity Endpoint Assay (purified): Fc: 78 ng/µL
Enzyme Activity Endpoint Assay (purified): IgG: 23 ng/µL
Enzyme Activity Endpoint Assay (purified): scIgG: 61 ng/µL

B11: PRT-5 (protein)
chain: MANQEIRYSEVTPYHVTSVWTKGVTPPANFTQGEDVFHAPYVANQGWYDITKTFNGKDDLLCGAATAGNMLHWWFDQNKDQIERYLKKHPEKQKINFNGEQMFDVKEAIDTKNSQLDSKLFEYFKEKAFPYLSTKHLGVFPDHVIDMFINGYRLSLTNHGPTPVKEGSKDPRGGIFDAVFTRGDQSKLLTSRHDFKEKNLKEISDLIKKELTEGKALGLSHTYANVRINHVINLWGADFDSNGNLEAIYVTDSDSNASIGMKKYFVGVNSAGKVAISAKEIKEDNIGAQVLGLFTLSTGQDIWNQTN
Enzyme Activity Endpoint Assay: Fab′2: 34 ng/µL
Enzyme Activity Endpoint Assay: Fc: 117 ng/µL
Enzyme Activity Endpoint Assay: IgG: 18 ng/µL
Enzyme Activity Endpoint Assay: scIgG: 34 ng/µL

B12: PRT-69 (protein)
chain: MANQEIRYSEVTPYHVTSVWTKGVTPPANFTQGEDVFHAPYVANQGWYDITKTFNGKDDLLCGAATAGNMLHWWFDQNKDQIKRYLEEHPEKQKINFNGEQMFDVKEAIDTKNDQLDSKLFEYFKEKAFPYLSTKHLGVFPDHVIDMFINGYRLSLTNHGPTPVKEGSKDPRGGIFDAVFTRGDQSKLLTSRHDFKEKNLKEISDLIKKELTEGKALGLSHTYANVRINHVINLWGADFDSNGNLKAIYVTDSDSNASIGMKKYFVGVNSAGKVAISAKEIKEDNIGAQVLGLFTLSTGQDSWNQTN
Enzyme Activity Endpoint Assay (purified): Fab′2: 45 ng/µL
Enzyme Activity Endpoint Assay (purified): Fc: 121 ng/µL
Enzyme Activity Endpoint Assay (purified): IgG: 14 ng/µL
Enzyme Activity Endpoint Assay (purified): scIgG: 14 ng/µL

B13: PRT-70 (protein)
chain: MANQEIRYSEVTPYHVTSVWTKGVTPPANFTQGEDVFHAPYVANQGWYDITKTFNGKDDLLCGAATAGNMLHWWFDQNKEQIKRYLEEHPEKQKINFNGEQMFDVKEAIDTKNHQLDSKLFEYFKEKAFPYLSTKHLGVFPDHVIDMFINGYRLSLTNHGPTPVKEGSKDPRGGIFDAVFTRGDQSKLLTSRHDFKEKNLKEISDLIKKELTEGKALGLSHTYANVRINHVINLWGADFDSNGNLKAIYVTDSDSNASIGMKKYFVGVNSAGKVAISAKEIKEDNIGAQVLGLFTLSTGQDSWNQTN
Enzyme Activity Endpoint Assay (purified): Fab′2: 47 ng/µL
Enzyme Activity Endpoint Assay (purified): Fc: 124 ng/µL
Enzyme Activity Endpoint Assay (purified): IgG: 14 ng/µL
Enzyme Activity Endpoint Assay (purified): scIgG: 14 ng/µL

B14: PRT-68 (protein)
chain: MANQEIRYSEVTPYHVTSVWTKGVTPPANFTQGEDVFHAPYVANQGWYDITKTFNGKDDLLCGAATAGNMLHWWFDQNKDQIKRYLEEHPEKQKINFNGEQMFDVKEAIDTKNHQLDSKLFEYFKEKAFPYLSTKHLGVFPDHVIDMFINGYRLSLTNHGPTPVKEGSKDPRGGIFDDVFTRGDQSKLLTSRHDFKEKNLKEISDLIKKELTEGKALGLSHTYANVRINHVINLWGADFDSNGNLKAIYVTDSDSNASIGMKKYFVGVNSAGKVAISAKEIKEDNIGAQVLGLFTLSTGQDSWNQTN
Enzyme Activity Endpoint Assay (purified): Fab′2: 51 ng/µL
Enzyme Activity Endpoint Assay (purified): Fc: 133 ng/µL
Enzyme Activity Endpoint Assay (purified): IgG: 16 ng/µL
Enzyme Activity Endpoint Assay (purified): scIgG: 16 ng/µL
